Tests used:
crystal structure = target: the molecule itself; assay: crystal structure
[1] = substrate: Cc1cc2nc3c(=O)[nH]c(=O)nc-3n(C[C@H](O)[C@H](O)[C@H](O)COP(=O)(O)OP(=O)(O)OC[C@H]3O[C@@H](n4cnc5c(N)ncnc54)[C@H](O)[C@@H]3O)c2cc1C; assay: HPLC of MTA-CoA formation, initial rates, nonlinear fit; format: biochemical, Roseovarius nubinhibens; details: MMPA-CoA as substrate, pH 9.0, 40°C, varied: cofactor
[2] = substrate: CSCCC(=O)SCCNC(=O)CCNC(=O)[C@H](O)C(C)(C)COP(=O)(O)OP(=O)(O)OC[C@H]1O[C@@H](n2cnc3c(N)ncnc32)[C@H](O)[C@@H]1OP(=O)(O)O; assay: as above; format: biochemical, Roseovarius nubinhibens; details: FAD, pH 9.0, 40°C

B1: DmdB Lys523Ala mutant (Ruegeria lacuscaerulensis ITI_1157) (enzyme, UniProt P0DX84 1-539, looked up)
chain: MLGQMMTQPLLISSLIDHAARYHGQTEIVSVETDGTVTRTNWGEIAANARRMGSALTKLGLQPQDRIGTLAWNNRRHLEIYYAASGAGFVCHTINPRLFPEQLVYIINHAQDRVLFFDATFLPLVAAIRDQLTEVKHFVLMGPRNEDALQQIPGLEFYDELIETGDTDFEWPVFDENTASSLCYTSGTTGHPKGVLYSHRSTVLHSFASNTRDVIGYSAMDVVMPVVPMFHVNAWGSPYGCAMSGAQMVLPGPDLHGEALVNLIDTYGVTLAMGVPTIWQGLLAHAAKCGTKLESLERTVIGGAACPPSMIATFREKYGVDTVHAWGMSEMSPLGTANIPLAKHRKLPIEEQHKLRENQGRPPFGVELKIVDDDGNDLPHDGVTQGDLMVRGHWVLDSYFQLKDQELLQDGWFATGDVATLDPDGYMTIRDRSKDIIKSGGEWISSVELENIAVAHPKLATAAVIGVPHPKWDERPLLVAVKAEGEDPSEAELLEFFDGKIAKWQVPDKVVFVDALPLNATGAVLKRKLRDEFKDALTG
B1: binds (crystal structure).

B2: DmdC (ISM) (Roseovarius nubinhibens ISM; T170A) (protein)
chain: MTRYTAPTQDIQYLLHDVLDVANDPTPGYAELEPDFTSAVLEEAGKIAGEVLHPLNAVGDQEGCVLENGVVRPPKGFKEAFDQVREGGWTALDLPEQYGGQNMPYLLGTAVGEMFSGANQAFTMYQGLTHGAASAILVHGTDQQKDTYLPKMFSCDWTGTMNLTEPHCGADLGLMRSKAVPQDDGSYAISGQKIFISAGEHDMAENIIHLVLAKIPGGPEGIKGVSLFIVPKFLVKEDGSLGERNGVKCSKIEEKMGIHGNSTCVMDYDGAKGWLLGEEHKGMRAMFTMMNEARIGVGMQGLAQAEVAYQNALDYARDRLQGRSVTGVENPDGPADPLIVHPDIRRNLLDQKSFIEGARAFLLWGAQMIDRAERGKDEAAHGMVSLLTPVIKGFLTDEGYDMTVQAQQVYGGHGYIEETGMSQFTRDARIAMIYEGANGVQALDLVGRKLAQDGGKHVMAFFDLVKGFIKEAGTDGAMAEFTEPLKSASKDLQSAGMFFMQNGMKNPNAALAGSYDFMHLFGHVCLGLMWGRMAEASLKALAEGRGDANFHETKLATARFYMTRRLPATKLHLARIESGADPVMALDADRF
B2 was tested, and the Km [1] was 0.1125 ± 0.0045 mM.

B3: DmdC (ISM) (Roseovarius nubinhibens ISM; R284A) (protein)
chain: MTRYTAPTQDIQYLLHDVLDVANDPTPGYAELEPDFTSAVLEEAGKIAGEVLHPLNAVGDQEGCVLENGVVRPPKGFKEAFDQVREGGWTALDLPEQYGGQNMPYLLGTAVGEMFSGANQAFTMYQGLTHGAASAILVHGTDQQKDTYLPKMFSCDWTGTMNLTEPHCGTDLGLMRSKAVPQDDGSYAISGQKIFISAGEHDMAENIIHLVLAKIPGGPEGIKGVSLFIVPKFLVKEDGSLGERNGVKCSKIEEKMGIHGNSTCVMDYDGAKGWLLGEEHKGMAAMFTMMNEARIGVGMQGLAQAEVAYQNALDYARDRLQGRSVTGVENPDGPADPLIVHPDIRRNLLDQKSFIEGARAFLLWGAQMIDRAERGKDEAAHGMVSLLTPVIKGFLTDEGYDMTVQAQQVYGGHGYIEETGMSQFTRDARIAMIYEGANGVQALDLVGRKLAQDGGKHVMAFFDLVKGFIKEAGTDGAMAEFTEPLKSASKDLQSAGMFFMQNGMKNPNAALAGSYDFMHLFGHVCLGLMWGRMAEASLKALAEGRGDANFHETKLATARFYMTRRLPATKLHLARIESGADPVMALDADRF
B3 showed a Km [2] of 12.4 ± 1.0 mM.

— publication PMC6850173 (Molecular Microbiology, 2019)
